The text below walks through data of PMC10288270, “Study on the Role of an Erythrocyte Membrane‐Coated Nanotheranostic System in Targeted Immune Regulation of Alzheimer's Disease”.

For the data set, the target named is Amyloid beta 1-42 (UniProt P05067 672-713). The data set is described as follows: fluorescence recovery (FAM/BHQ1 dequenching); Abeta 0-160 ug/mL, 2 h; TBS: 1 mM Tris-HCl, 100 mM NaCl, 4 mM MgCl2, 5 mM KCl, pH 7.4; 37 C, 2 h; aptamer refolded from 95 C; 2 uL of 10 uM aptamer. The note with it: protein: commercial; label: 5' 6-FAM, 3' BHQ1 as printed in Methods (Results text states FAM 3', BHQ 5'); hairpin (stated design).
Amyloid beta 1-42, sequence (P05067 672-713): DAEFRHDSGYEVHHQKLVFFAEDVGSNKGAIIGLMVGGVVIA

TGGGGGGCGGACGATAGGGGCCCCCCGGTAGGATGGACG (structured_DNA) [Abeta aptamer (AAP)]: the binding result is recorded as “binds”.
